{"source": "paper PMC3326396", "about": "(Biochemistry, 2012)", "target": "the molecule itself", "experiment": "SEC", "data": [{"protein": "N-terminal Strep2-(G4S)3-tagged PhaC purified from R. eutropha (enzyme, Ralstonia eutropha H16, UniProt P23608 2-589, looked up) ATGKGAAASTQEGKSQPFKVTPGPFDPATWLEWSRQWQGTEGNGHAAASGIPGLDALAGVKIAPAQLGDIQQRYMKDFSALWQAMAEGKAEATGPLHDRRFAGDAWRTNLPYRFAAAFYLLNARALTELADAVEADAKTRQRIRFAISQWVDAMSPANFLATNPEAQRLLIESGGESLRAGVRNMMEDLTRGKISQTDESAFEVGRNVAVTEGAVVFENEYFQLLQYKPLTDKVHARPLLMVPPCINKYYILDLQPESSLVRHVVEQGHTVFLVSWRNPDASMAGSTWDDYIEHAAIRAIEVARDISGQDKINVLGFCVGGTIVSTALAVLAARGEHPAASVTLLTTLLDFADTGILDVFVDEGHVQLREATLGGGAGAPCALLRGLELANTFSFLRPNDLVWNYVVDNYLKGNTPVPFDLLFWNGDATNLPGPWYCWYLRHTYLQNELKVPGKLTVCGVPVDLASIDVPTYIYGSREDHIVPWTAAYASTALLANKLRFVLGASGHIAGVINPPAKNKRSHWTNDALPESPQQWLAGAIEHHGSWWPDWTAWLAGQAGAKRAAPANYGNARYRAIEPAPGRYVKAKA", "values": [{"measurement": "stoichiometry N", "result": 2}]}, {"protein": "N-terminal-Strep2-(G4S)3-tagged PhaC purified from E. coli (enzyme, Ralstonia eutropha H16, UniProt P23608 2-589, looked up) ATGKGAAASTQEGKSQPFKVTPGPFDPATWLEWSRQWQGTEGNGHAAASGIPGLDALAGVKIAPAQLGDIQQRYMKDFSALWQAMAEGKAEATGPLHDRRFAGDAWRTNLPYRFAAAFYLLNARALTELADAVEADAKTRQRIRFAISQWVDAMSPANFLATNPEAQRLLIESGGESLRAGVRNMMEDLTRGKISQTDESAFEVGRNVAVTEGAVVFENEYFQLLQYKPLTDKVHARPLLMVPPCINKYYILDLQPESSLVRHVVEQGHTVFLVSWRNPDASMAGSTWDDYIEHAAIRAIEVARDISGQDKINVLGFCVGGTIVSTALAVLAARGEHPAASVTLLTTLLDFADTGILDVFVDEGHVQLREATLGGGAGAPCALLRGLELANTFSFLRPNDLVWNYVVDNYLKGNTPVPFDLLFWNGDATNLPGPWYCWYLRHTYLQNELKVPGKLTVCGVPVDLASIDVPTYIYGSREDHIVPWTAAYASTALLANKLRFVLGASGHIAGVINPPAKNKRSHWTNDALPESPQQWLAGAIEHHGSWWPDWTAWLAGQAGAKRAAPANYGNARYRAIEPAPGRYVKAKA", "values": [{"measurement": "stoichiometry N", "result": 2}]}]}
